From PMC8930769 come the findings set out here.

In the assay the target is native human uromodulin (UMOD), full-length, filaments (human) (UniProt P07911). The assay can be described thus: cryo-EM structure; purified native UMOD filaments and His-tagged FimHL A27V mixed at a molar ratio of 1:3, 30 min, dialysed against 10 mM Na-HEPES pH 7.0; single-particle cryo-EM, 7.4 Å; FimHL docked into the difference map.

As usually defined, the stoichiometry N is a count of units in the complex or per binding partner.

As for “His-tagged FimHL A27V from UPEC strain UTI89 (from UniProt Q1R2J4 22-179) (domain or fragment)”, the stoichiometry N worked out at 1.
